The data set is described as follows: immunoblot of HEK293 lysate and culture medium. Conditions: glycan lost; control: wild-type FMOD.

For 1 protein, expression_or_secretion results are on record in PMC6063439.

B1: fibromodulin (FMOD): FMODΔGAG (protein)
parent chain: MQWTSLLLLAGLFSLSQAQYEDDPHWWFHYLRSQQSTYYDPYDPYPYETYEPYPYGVDEGPAYTYGSPSPPDPRDCPQECDCPPNFPTAMYCDNRNLKYLPFVPSRMKYVYFQNNQITSIQEGVFDNATGLLWIALHGNQITSDKVGRKVFSKLRHLERLYLDHNNLTRMPGPLPRSLRELHLDHNQISRVPNNALEGLENLTALYLQHNEIQEVGSSMRGLRSLILLDLSYNHLRKVPDGLPSALEQLYMEHNNVYTVPDSYFRGAPKLLYVRLSHNSLTNNGLASNTFNSSSLLELDLSYNQLQKIPPVNTNLENLYLQGNRINEFSISSFCTVVDVVNFSKLQVLRLDGNEIKRSAMPADAPLCLRLASLIEI
Turning to B1, the expression_or_secretion entry is reported as “abolishes”.
